Data reported in article PMC8125140.

Columns and labels:
[1] = molecular target: γ2-GABAA subunit fused with a superecliptic pHluorin (SEP) tag (UniProt P18508)
[2] = molecular target: γ2-GABAA subunit fused with a superecliptic pHluorin (SEP) tag (UniProt P18508); remark: listed apart in the source
[3] = molecular target: γ2-GABAA subunit fused with a superecliptic pHluorin (SEP) tag (UniProt P18508); remark: listed apart in the source
[4] = molecular target: γ2-GABAA receptor (endogenous) (rat (endogenous in hippocampal neurons)) (UniProt P18508)

“dopamine D5 receptor (endogenous) (from UniProt P25115 1-475)” was tested, and the diffusion coefficient median of SEP-γ2-GABAARs at inhibitory synaptic sites with the disrupting peptide TATD5Ct (10 µM); control 1.81 10^−2 µm^2/s [1] was 0.0578 µm^2/s, the explored area of SEP-γ2-GABAARs at inhibitory synapses with the disrupting peptide TATD5Ct (10 µM); control 0.30 10^−2 [1] was 0.0133 µm^2/s and the immobile fraction (D < 0.005 µm^2/s) of SEP-γ2-GABAARs at inhibitory synapses, single nanoparticle tracking, after the disrupting peptide TATD5Ct (10 µM, 10 min); control 33% [1] was 9%. For the same substance, the diffusion coefficient median of SEP-γ2-GABAARs at excitatory synapses with the disrupting peptide TATD5Ct (10 µM); control 3.15 10^−2 µm^2/s; no change (p = 0.13) [2] was 0.0412 µm^2/s, the explored area of SEP-γ2-GABAARs at excitatory synapses with the disrupting peptide TATD5Ct (10 µM); control 0.60 10^−2 µm^2; unchanged (p = 0.097) [2] was 0.0073 µm^2 and the immobile fraction of SEP-γ2-GABAARs at excitatory synapses with the disrupting peptide TATD5Ct (10 µM); no change [2] was 20%. The diffusion coefficient median of extrasynaptic SEP-γ2-GABAARs after incubation with the disrupting peptide TATD5Ct (10 µM); control 4.11 10^−2 µm^2/s [3] was 0.075 µm^2/s, the explored area of extrasynaptic SEP-γ2-GABAARs with the disrupting peptide TATD5Ct (10 µM); control 1.24 10^−2 µm^2 [3] was 0.0245 µm^2 and the immobile fraction of extrasynaptic SEP-γ2-GABAARs with the disrupting peptide TATD5Ct (10 µM); control 25% [3] was 17%.
Work on “dopamine D5 receptor fused to the yellow fluorescent protein (YFP) (from UniProt P25115 1-475)” yielded a diffusion coefficient median of extrasynaptic D5Rs (D5R–YFP) after incubation with the disrupting peptide TATD5Ct (10 µM); control 7.42 10^−2 µm^2/s [4] of 0.103 µm^2/s, an explored area of extrasynaptic D5Rs (D5R–YFP) with the disrupting peptide TATD5Ct (10 µM); control 2.37 10^−2 µm^2 [4] of 0.0345 µm^2 and an immobile fraction of extrasynaptic D5Rs (D5R–YFP, single nanoparticle tracking) with the disrupting peptide TATD5Ct (10 µM); not changed [4] of 15%.
